Experimental data published in patent publication US20230365675A1 (published 2023).

How the values were obtained:
[1] = target: CD33-GFP fusion protein, wild type (WT), on 293FT cells (UniProt P20138); test: FACS, WT CD33-GFP on 293FT cells
[2] = target: Biotinylated CD33 protein (UniProt P20138); test: Octet competition on biotinylated CD33; competitor 413
[3] = target: Biotinylated CD33 protein (UniProt P20138); test: Octet competition on biotinylated CD33; competitor 416
[4] = target: Biotinylated CD33 protein (UniProt P20138); test: Octet competition on biotinylated CD33; competitor 430
[5] = target: Biotinylated CD33 protein (UniProt P20138); test: Octet competition on biotinylated CD33; competitor 420
[6] = target: Biotinylated CD33 protein (UniProt P20138); test: Octet competition on biotinylated CD33; competitor 389
[7] = target: T1, Mutant CD33-GFP M8 (K52A) on 293FT cells (UniProt P20138 18-364); test: FACS, mutant CD33-GFP on 293FT cells
T1 construct: whole, on cells; not shown: GFP fused to CD33
T1 sequence (P20138 18-364 K52A): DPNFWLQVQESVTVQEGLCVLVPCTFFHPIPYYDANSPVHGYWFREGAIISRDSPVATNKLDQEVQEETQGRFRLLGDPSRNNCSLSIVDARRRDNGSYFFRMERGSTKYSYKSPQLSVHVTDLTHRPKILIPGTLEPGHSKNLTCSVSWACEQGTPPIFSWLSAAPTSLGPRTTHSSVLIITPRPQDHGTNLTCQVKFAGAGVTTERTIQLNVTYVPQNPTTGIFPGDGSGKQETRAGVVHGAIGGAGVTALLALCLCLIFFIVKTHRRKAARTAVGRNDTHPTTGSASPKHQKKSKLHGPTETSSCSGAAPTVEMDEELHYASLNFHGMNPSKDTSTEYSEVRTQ

[8] = target: T2, Mutant CD33-GFP M6 (F43N) on 293FT cells (UniProt P20138 18-364); test: FACS, mutant CD33-GFP on 293FT cells
T2 construct: whole, on cells; not shown: GFP fused to CD33
T2 sequence (P20138 18-364 F43N): as the sequence (P20138 18-364 K52A) above, with F26N, A35K counted along it

[9] = target: T3, Mutant CD33-GFP M7 (R98D) on 293FT cells (UniProt P20138 18-364); test: FACS, mutant CD33-GFP on 293FT cells
T3 construct: whole, on cells; not shown: GFP fused to CD33
T3 sequence (P20138 18-364 R98D): as the sequence (P20138 18-364 K52A) above, with A35K, R81D counted along it

[10] = target: Biotinylated CD33 protein (UniProt P20138); test: Octet competition on biotinylated CD33; competitor h195
[11] = target: Biotinylated CD33 protein (UniProt P20138); test: Octet competition on biotinylated CD33; competitor 426
[12] = target: T4, Mutant CD33-GFP M2 (H45E) on 293FT cells (UniProt P20138 18-364); test: FACS, mutant CD33-GFP on 293FT cells
T4 construct: whole, on cells; not shown: GFP fused to CD33
T4 sequence (P20138 18-364 H45E): as the sequence (P20138 18-364 K52A) above, with H28E, A35K counted along it

[13] = target: T5, Mutant CD33-GFP M1 (W22A) on 293FT cells (UniProt P20138 18-364); test: FACS, mutant CD33-GFP on 293FT cells
T5 construct: whole, on cells; not shown: GFP fused to CD33
T5 sequence (P20138 18-364 W22A): as the sequence (P20138 18-364 K52A) above, with W5A, A35K counted along it

[14] = target: T6, Mutant CD33-GFP M3 (N99A) on 293FT cells (UniProt P20138 18-364); test: FACS, mutant CD33-GFP on 293FT cells
T6 construct: whole, on cells; not shown: GFP fused to CD33
T6 sequence (P20138 18-364 N99A): as the sequence (P20138 18-364 K52A) above, with A35K, N82A counted along it

[15] = target: Biotinylated CD33 protein (UniProt P20138); test: Octet competition on biotinylated CD33; competitor 424
[16] = target: Biotinylated CD33 protein (UniProt P20138); test: Octet competition on biotinylated CD33; competitor 348
[17] = target: Mutant CD33-GFP M18 (353AAL) on 293FT cells (UniProt P20138); test: FACS, mutant CD33-GFP on 293FT cells
[18] = target: Mutant CD33-GFP M13 (R91E) on 293FT cells (UniProt P20138); test: FACS, mutant CD33-GFP on 293FT cells
Sequence of Mutant CD33-GFP M13 (R91E) on 293FT cells (P20138 18-364 R91E): as the sequence (P20138 18-364 K52A) above, with A35K, R74E counted along it

[19] = target: Mutant CD33-GFP M14 (E170R) on 293FT cells (UniProt P20138); test: FACS, mutant CD33-GFP on 293FT cells
Sequence of Mutant CD33-GFP M14 (E170R) on 293FT cells (P20138 18-364 E170R): as the sequence (P20138 18-364 K52A) above, with A35K, E153R counted along it

[20] = target: Mutant CD33-GFP M9 (Y49, 50A) on 293FT cells (UniProt P20138); test: FACS, mutant CD33-GFP on 293FT cells
Sequence of Mutant CD33-GFP M9 (Y49, 50A) on 293FT cells (P20138 other isoform, or with tags, fused parts or gaps mutant): as the sequence (P20138 18-364 K52A) above, with Y32A, Y33A, A35K counted along it

[21] = target: Mutant CD33-GFP M19 (348ATAI) on 293FT cells (UniProt P20138); test: FACS, mutant CD33-GFP on 293FT cells
[22] = target: Mutant CD33-GFP M12 (G88S) on 293FT cells (UniProt P20138); test: FACS, mutant CD33-GFP on 293FT cells
Sequence of Mutant CD33-GFP M12 (G88S) on 293FT cells (P20138 18-364 G88S): as the sequence (P20138 18-364 K52A) above, with A35K, G71S counted along it

[23] = target: Mutant CD33-GFP M4 (R122D) on 293FT cells (UniProt P20138); test: FACS, mutant CD33-GFP on 293FT cells
Sequence of Mutant CD33-GFP M4 (R122D) on 293FT cells (P20138 18-364 R122D): as the sequence (P20138 18-364 K52A) above, with A35K, R105D counted along it

[24] = target: Mutant CD33-GFP M17 (F21Y) on 293FT cells (UniProt P20138); test: FACS, mutant CD33-GFP on 293FT cells
Sequence of Mutant CD33-GFP M17 (F21Y) on 293FT cells (P20138 18-364 F21Y): as the sequence (P20138 18-364 K52A) above, with F4Y, A35K counted along it

[25] = target: Mutant CD33-GFP M5 (AEAD), quadruple mutant, on 293FT cells (UniProt P20138); test: FACS, mutant CD33-GFP on 293FT cells
Sequence of Mutant CD33-GFP M5 (AEAD), quadruple mutant, on 293FT cells (P20138 other isoform, or with tags, fused parts or gaps mutant): as the sequence (P20138 18-364 K52A) above, with W5A, H28E, A35K, N82A, R105D counted along it

[26] = target: Mutant CD33-GFP M10 (Y127A) on 293FT cells (UniProt P20138); test: FACS, mutant CD33-GFP on 293FT cells
Sequence of Mutant CD33-GFP M10 (Y127A) on 293FT cells (P20138 18-364 Y127A): as the sequence (P20138 18-364 K52A) above, with A35K, Y110A counted along it

[27] = target: Mutant CD33-GFP M16 (4889AII) on 293FT cells (UniProt P20138); test: FACS, mutant CD33-GFP on 293FT cells
[28] = target: Mutant CD33-GFP N20D on 293FT cells (UniProt P20138); test: FACS, mutant CD33-GFP on 293FT cells
Sequence of Mutant CD33-GFP N20D on 293FT cells (P20138 18-364 N20D): as the sequence (P20138 18-364 K52A) above, with N3D, A35K counted along it

[29] = target: Mutant CD33-GFP M11 (L78T) on 293FT cells (UniProt P20138); test: FACS, mutant CD33-GFP on 293FT cells
Sequence of Mutant CD33-GFP M11 (L78T) on 293FT cells (P20138 18-364 L78T): as the sequence (P20138 18-364 K52A) above, with A35K, L61T counted along it

[30] = target: Mutant CD33-GFP M15 (Q171A) on 293FT cells (UniProt P20138); test: FACS, mutant CD33-GFP on 293FT cells
Sequence of Mutant CD33-GFP M15 (Q171A) on 293FT cells (P20138 18-364 Q171A): as the sequence (P20138 18-364 K52A) above, with A35K, Q154A counted along it

[31] = target: Mutant CD33-GFP JS24 (Q24E) on 293FT cells (UniProt P20138); test: FACS, mutant CD33-GFP on 293FT cells
Sequence of Mutant CD33-GFP JS24 (Q24E) on 293FT cells (P20138 18-364 Q24E): as the sequence (P20138 18-364 K52A) above, with Q7E, A35K counted along it

[32] = target: Mutant CD33-GFP JS23 (L23N) on 293FT cells (UniProt P20138); test: FACS, mutant CD33-GFP on 293FT cells
Sequence of Mutant CD33-GFP JS23 (L23N) on 293FT cells (P20138 18-364 L23N): as the sequence (P20138 18-364 K52A) above, with L6N, A35K counted along it

[33] = target: Mutant CD33-GFP JS28 (S28L) on 293FT cells (UniProt P20138); test: FACS, mutant CD33-GFP on 293FT cells
Sequence of Mutant CD33-GFP JS28 (S28L) on 293FT cells (P20138 18-364 S28L): as the sequence (P20138 18-364 K52A) above, with S11L, A35K counted along it

[34] = target: Mutant CD33-GFP JS25 (V25M) on 293FT cells (UniProt P20138); test: FACS, mutant CD33-GFP on 293FT cells
Sequence of Mutant CD33-GFP JS25 (V25M) on 293FT cells (P20138 18-364 V25M): as the sequence (P20138 18-364 K52A) above, with V8M, A35K counted along it

[35] = target: Biotinylated CD33 protein (UniProt P20138); test: Octet competition on biotinylated CD33; competitor 429
[36] = target: Biotinylated CD33 protein (UniProt P20138); test: Octet competition on biotinylated CD33; competitor 353
CD33 on MOLM-13 cells = CD33 on MOLM-13 cells (human, UniProt P20138 18-364); test: cell-based or functional assay
Sequence of CD33 on MOLM-13 cells (P20138 18-364): as the sequence (P20138 18-364 K52A) above, with A35K counted along it

Sequence of CD33-GFP fusion protein, wild type (WT), on 293FT cells (P20138 18-364): as the sequence (P20138 18-364 K52A) above, with A35K counted along it
Sequence of Biotinylated CD33 protein (P20138 18-259 limits assumed): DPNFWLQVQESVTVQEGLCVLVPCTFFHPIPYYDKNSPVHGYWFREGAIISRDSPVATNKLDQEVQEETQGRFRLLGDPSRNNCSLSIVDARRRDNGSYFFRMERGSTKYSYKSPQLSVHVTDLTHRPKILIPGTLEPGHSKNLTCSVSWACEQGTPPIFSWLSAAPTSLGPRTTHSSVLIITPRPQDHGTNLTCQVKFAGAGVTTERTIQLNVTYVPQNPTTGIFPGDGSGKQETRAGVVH

Molecule | FACS binding data [1] | Octet signal [2] | Octet signal [3] | Octet signal [4] | Octet signal [5] | FACS binding data [7] | FACS binding data [8] | FACS binding data [9] | Octet signal [10] | Octet signal [11] | FACS binding data [12] | FACS binding data [13] | FACS binding data [14] | Octet signal [15] | FACS binding data [17] | FACS binding data [18] | FACS binding data [19] | FACS binding data [20] | FACS binding data [21] | FACS binding data [22] | further results
hu195 (antibody) | 97.8 |  |  |  |  |  |  |  |  |  |  |  |  |  |  |  |  |  |  |  | 
sdCD33_3 (VHH) VHH: DVQLVESGGGLVQPGGSLRLSCSVSGNIDRFYAMGWYRQAPGKQRELVAQLTNNEITTYGDSVEGQFSISGDFDANTVYLQMDSLKPEDTAVYYCHAHVTTTRWSQDYYWGQGTRVTVSS | 98.3 | 0.0204 | -0.0696 | 0.231 | -0.0387 | 97.3 | 99 | 98.8 | 0.295 | -0.0122 | 98.8 | 99.4 | 99.4 | -0.108 | 99 | 98.7 | 98.7 | 0.64 | 99.6 | 99 | Octet signal [6]: 0.152; Octet signal [16]: 0.0077; FACS binding data [23]: 98.5; FACS binding data [24]: 98.2; FACS binding data [25]: 0.31; FACS binding data [26]: 96.3; FACS binding data [27]: 98.4; FACS binding data [28]: 98.7; FACS binding data [29]: 78; FACS binding data [30]: 98.2; FACS binding data [31]: 99.4; FACS binding data [32]: 99.1; FACS binding data [33]: 99.6; FACS binding data [34]: 99.7; Octet signal [35]: -0.13
sdCD33_2 (VHH) VHH: QVQLVQPGGSLRLFCVASEEFFSIYAMGWYRQAPGKQHEMVARFTRDGKITYADSAKGRFTITRDAKNTLNLQMNGLIPEDTAVYYCNINHYWGQGTQVTVSS | 98.3 | 0.623 | 0.0635 | 0.651 | 0.381 | 91.2 | 95.3 | 0.48 | 0.799 | 0.158 | 2.54 | 8.08 | 81.9 | 0.0143 | 97.3 | 98.6 | 98.2 | 0.39 | 99 | 98.2 | Octet signal [6]: 0.584; Octet signal [36]: 0.322; FACS binding data [23]: 1.43; FACS binding data [24]: 98.9; FACS binding data [25]: 0.41; FACS binding data [26]: 98.5; FACS binding data [27]: 98.4; FACS binding data [28]: 98.9; FACS binding data [29]: 33.4; FACS binding data [30]: 98.7; FACS binding data [31]: 98.8; FACS binding data [32]: 95.4; FACS binding data [33]: 99.5; FACS binding data [34]: 99.3; Octet signal [35]: 0.0422
Anti-CD33 CAR 6 (other) QVQLVETGGGLVRAGGSLRLSCAASGRTADIYNIGWFRQAPGKEREFVAAITWIGRTPYYADAVKGRFAFSTDSAKNTVSLQMDNLKPEDTGVYYCNAAHYLEGNTDYYWGQGTQVTVSSAAATTTPAPRPPTPAPTIASQPLSLRPEACRPAAGGAVHTRGLDFACDIYIWAPLAGTCGVLLLSLVITLYCKRGRKKLLYIFKQPFMRPVQTTQEEDGCSCRFPEEEEGGCELRVKFSRSADAPAYQQGQNQLYNELNLGRREEYDVLDKRRGRDPEMGGKPRRKNPQEGLYNELQKDKMAEAYSEIGMKGERRRGKGHDGLYQGLSTATKDTYDALHMQALPPR |  |  |  |  |  |  |  |  |  |  |  |  |  |  |  |  |  |  |  |  | Ratio (CD33 on MOLM-13 cells): 3.6; Testing FP2 Expression (CD33+) (CD33 on MOLM-13 cells): 22.9 % of constitutive-fluorescence-positive cells

The next lines start with results.

FACS binding data [1] | Octet signal [2] | Octet signal [3] | Octet signal [4] | Octet signal [5] | FACS binding data [7] | FACS binding data [8] | FACS binding data [9] | Octet signal [10] | Octet signal [11] | FACS binding data [12] | FACS binding data [13] | FACS binding data [14] | Octet signal [15] | FACS binding data [17] | FACS binding data [18] | FACS binding data [19] | FACS binding data [20] | FACS binding data [21] | FACS binding data [22] | Molecule | further results
98.4 | -0.0267 | -0.28 | 0.0905 | -0.0649 | 0.15 | 98.3 | 21.5 | 0.355 | -0.137 | 84.4 | 99.3 | 97 | -0.271 | 99.5 | 99.1 | 98.8 | 97.4 | 99.6 | 99 | sdCD33_4 (VHH) VHH: QVKLEESGGGSVQAGESLRLSCTASGITFRDYDIDWYRQAPGKEREWLATITPSGTTHYPDSVKGRATISRDSAKNTVYLQMNSLKPEDTARYECNTLAYWGSGTQVTVSS | Octet signal [36]: -0.101; Octet signal [16]: -0.146; FACS binding data [23]: 6.01; FACS binding data [24]: 98.5; FACS binding data [25]: 0.16; FACS binding data [26]: 97.2; FACS binding data [27]: 98.7; FACS binding data [28]: 98.5; FACS binding data [29]: 62.8; FACS binding data [30]: 98.8; FACS binding data [31]: 99.3; FACS binding data [32]: 99; FACS binding data [33]: 99.6; FACS binding data [34]: 99.5; Octet signal [35]: -0.26
98 | 0.865 | 0.552 | 1.44 | 0.95 | 66.1 | 97.6 | 97.1 | 1.37 | 0.543 | 65.5 | 99.1 | 99 | 0.628 | 15.6 | 98.5 | 98.4 | 0.22 | 98.3 | 98.6 | sdCD33_10 (VHH) VHH: QVQLVETGGGLVRAGGSLRLSCAASGRTADIYNIGWFRQAPGKEREFVAAITWIGRTPYYADAVKGRFAFSTDSAKNTVSLQMDNLKPEDTGVYYCNAAHYLEGNTDYYWGQGTQVTVSS | Octet signal [6]: 1.16; Octet signal [36]: 1.01; Octet signal [16]: 0.616; FACS binding data [23]: 21.1; FACS binding data [24]: 94.1; FACS binding data [25]: 0.12; FACS binding data [26]: 93.9; FACS binding data [27]: 98.6; FACS binding data [28]: 96.6; FACS binding data [29]: 67.3; FACS binding data [30]: 98.9; FACS binding data [31]: 98.2; FACS binding data [32]: 98.4; FACS binding data [33]: 99.6; FACS binding data [34]: 99.6
